One molecule from article PMC2965252 can be followed below.

The data set deals with SF2/ASF (ΔRS domain) (UniProt Q07955 1-196). The experiment in a line: EMSA. (In general: In EMSA bound probe runs differently from free probe, usually more slowly.)
Chain of SF2/ASF (ΔRS domain) (Q07955 1-196, stated change not applied): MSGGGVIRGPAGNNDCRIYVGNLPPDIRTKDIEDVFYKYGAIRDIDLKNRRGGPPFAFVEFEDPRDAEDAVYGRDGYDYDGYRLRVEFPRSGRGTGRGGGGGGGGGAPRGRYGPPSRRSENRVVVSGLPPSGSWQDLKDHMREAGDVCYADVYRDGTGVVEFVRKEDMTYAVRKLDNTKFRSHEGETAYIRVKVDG

For the molecule GUGAUCAGGAUGCCCUUCUC (ssRNA) [CD200 exon 2 RNA with wild-type ESE], the binding result was “binds”.
